Source: paper PMC11035067
One block for each substance: values may come before it.

How the values were obtained:
Test in all cases: SEC; gel filtration during purification, Superdex 200 increase 10/300 GL in gel-filtration buffer (Table S2), non-actinic dim green light; self-association (dimer)
[1] = target: IsPadC D199N (Idiomarina sp. A28L)
[2] = target: IsPadC H193Q (Idiomarina sp. A28L)
[3] = target: IsPadC H193L (Idiomarina sp. A28L)
[4] = target: IsPadC G449E (Idiomarina sp. A28L)
[5] = target: IsPadC R467S (Idiomarina sp. A28L)
[6] = target: Idiomarina species A28L phytochrome-activated diguanylate cyclase (IsPadC), wild type (Idiomarina sp. A28L)
[7] = target: IsPadC D199L (Idiomarina sp. A28L)

stoichiometry N [3]: 2
Substance: IsPadC H193L (enzyme)

stoichiometry N [6]: 2
Substance: Idiomarina species A28L phytochrome-activated diguanylate cyclase (IsPadC), wild type (enzyme)

Continued, substance first:

Substance: IsPadC D199N (enzyme)
stoichiometry N [1]: 2

Substance: IsPadC H193Q (enzyme)
stoichiometry N [2]: 2

Substance: IsPadC G449E (enzyme)
stoichiometry N [4]: 2

Substance: IsPadC R467S (enzyme)
stoichiometry N [5]: 2

Substance: IsPadC D199L (enzyme)
stoichiometry N [7]: 2
